According to publication PMC3903462 (Biochemistry, 2013):

Molecular target: the molecule itself
Test: SEC-MALS

B1: HsaD from Mycobacterium tuberculosis H37Rv (enzyme)
chain: MTATEELTFESTSRFAEVDVDGPLKLHYHEAGVGNDQTVVLLHGGGPGAASWTNFSRNIAVLARHFHVLAVDQPGYGHSDKRAEHGQFNRYAAMALKGLFDQLGLGRVPLVGNSLGGGTAVRFALDYPARAGRLVLMGPGGLSINLFAPDPTEGVKRLSKFSVAPTRENLEAFLRVMVYDKNLITPELVDQRFALASTPESLTATRAMGKSFAGADFEAGMMWREVYRLRQPVLLIWGREDRVNPLDGALVALKTIPRAQLHVFGQCGHWVQVEKFDEFNKLTIEFLGGGR
stoichiometry N: 4
